Laboratory results as given in patent US20160136262A1.

Legend:
[1] = molecular target: T1, H1-mini2-cluster1+5+6-GCN4 without leader sequence and with FLAG-thrombin-foldon-HIS; assay: ELISA/HTRF, HEK293F; average; conditions: remark: other sources report otherwise
[2] = molecular target: T1, H1-mini2-cluster1+5+6-GCN4 without …; assay: ELISA/HTRF, P. pastoris; average; conditions: remark: other sources report otherwise

B1: CR6261 (antibody, V domains shown)
VH: EVQLVESGAEVKKPGSSVKVSCKASGGPFRSYAISWVRQAPGQGPEWMGGIIPIFGTTKYAPKFQGRVTITADDFAGTVYMELSSLRSEDTAMYYCAKHMGYQVRETMDVWGKGTTVTVSS
VL: QSVLTQPPSVSAAPGQKVTISCSGSSSNIGNDYVSWYQQLPGTAPKLLIYDNNKRPSGIPDRFSGSKSGTSATLGITGLQTGDEANYYCATWDRRPTAYVVFGGGTKLTVLG
fold increase of ratio over parental SEQ ID NO: 6 [1]: 1 fold | ratio binding signal/HTRF signal [1]: 17.4 | fold increase of ratio over parental SEQ ID NO: 6 [2]: 1 fold | ratio binding signal/HTRF signal [2]: 5.94
